For three molecules, Kd results are on record in publication PMC9398005 (2021).

What all share (assay): ITC
Experiment [1] addresses mouse Rbpj (53-474) K195E (mouse, UniProt P31266 53-474, K195E).
The target of another experiment is mouse Rbpj (53-474) WT (mouse, UniProt P31266 53-474).
Experiment [2] has as its target Drosophila Su(H) (98-523) E137V (Drosophila, UniProt P28159 98-523, E137V | R155T).
In experiment [3] the target is Drosophila Su(H) (98-523) K132M (Drosophila, UniProt P28159 98-523, K132M | R155T).
Chain of Drosophila Su(H) (98-523) K132M (P28159 98-523 K132M/R155T/N281G): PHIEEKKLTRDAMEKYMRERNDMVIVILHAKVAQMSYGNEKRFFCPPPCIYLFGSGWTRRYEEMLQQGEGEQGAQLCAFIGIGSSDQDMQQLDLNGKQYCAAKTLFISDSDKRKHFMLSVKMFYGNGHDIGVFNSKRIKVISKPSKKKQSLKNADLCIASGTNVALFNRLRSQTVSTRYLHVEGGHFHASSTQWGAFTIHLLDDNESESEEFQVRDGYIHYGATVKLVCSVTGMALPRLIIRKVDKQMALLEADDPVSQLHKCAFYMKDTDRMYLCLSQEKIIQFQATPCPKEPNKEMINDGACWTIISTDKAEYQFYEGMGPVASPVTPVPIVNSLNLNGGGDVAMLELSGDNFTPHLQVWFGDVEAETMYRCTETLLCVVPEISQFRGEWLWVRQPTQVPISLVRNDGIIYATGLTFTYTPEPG

Chain of mouse Rbpj (53-474) K195E (P31266 53-474 K195E): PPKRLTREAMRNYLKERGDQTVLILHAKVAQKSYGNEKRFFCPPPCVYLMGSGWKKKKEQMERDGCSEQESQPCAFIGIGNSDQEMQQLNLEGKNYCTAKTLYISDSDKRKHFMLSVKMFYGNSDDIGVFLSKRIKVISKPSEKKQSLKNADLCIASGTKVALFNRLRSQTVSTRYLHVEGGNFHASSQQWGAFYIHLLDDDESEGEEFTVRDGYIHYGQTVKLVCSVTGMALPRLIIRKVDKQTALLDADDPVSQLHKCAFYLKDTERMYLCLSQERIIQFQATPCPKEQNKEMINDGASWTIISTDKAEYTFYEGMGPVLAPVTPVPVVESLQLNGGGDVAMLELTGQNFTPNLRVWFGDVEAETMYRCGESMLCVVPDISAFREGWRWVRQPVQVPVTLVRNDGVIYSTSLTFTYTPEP
Chain of Drosophila Su(H) (98-523) E137V (P28159 98-523 E137V/R155T/N281G): as the sequence (P28159 98-523 K132M/R155T/N281G) above, with M35K, E40V counted along it
Chain of mouse Rbpj (53-474) WT (P31266 53-474): as the sequence (P31266 53-474 K195E) above, with E143K counted along it

Regarding VLLSRKRRRQHGQLWFPEGFKVSEASKK [Notch1 RAM peptide (human Notch1 residues 1754-1781)], the Kd in experiment [1] worked out at 22 nM.

B1: SHARP residues 2776-2833 (domain or fragment)
chain: RASANENSRFHPGSMPVIDDRPADAGSGAGLRVNTSEGVVLLSYSGQKTEGPQRISAK
In turn, B1 came in with a dissociation constant Kd with mouse Rbpj (53-474) WT of 4 nM.
As to VLSTQRKRAHGVTWFPEGFRAPAAVMSR [Drosophila Notch RAM peptide (residues 1763-1790)], the Kd amounted to 166 nM in experiment [2] and 107 nM in experiment [3].

Usually Kd stands for the free concentration of one partner at which half of the binding sites on the other are occupied at equilibrium, for simple one-to-one binding. A lower Kd goes with a tighter complex.
